Assay results as given in US20060264369, “Aptamers to von Willebrand Factor and their use as thrombotic disease therapeutics” (published 2006).

Columns and labels:
[1] = molecular target: T1, von Willebrand factor full length (Homo sapiens, UniProt P04275 SEQ:764-2813); test: filter; 33% bound at 100 nM vWF; settings: tags: Calbiochem 681300; label: 5'-32P
Method: (§1) For KD determination, chemically synthesized aptamers were purified using denaturing polyacrylamide gel electrophoresis, 5′end labeled with γ-³²P ATP and were tested for direct binding to full length human vWF (Calbiochem Cat.# 681300, La Jolla, Calif.). An 8 point protein titration was used in the dot blot binding assay (100 nM, 30 nM, 10 nM, 3 nM, 1 nM, 300 pM, 100 pM, 0 pM)) in 1× Dulbecco's PBS containing […] (final volume of 50 uL) for 30 minutes at room temperature. KD values were calculated by fitting the equation y=(max/(1+K/protein))+yint using KaleidaGraph (KaleidaGraph v. 3.51, Synergy Software).

[2] = molecular target: T1, von Willebrand factor full length; test: filter; 29% bound at 100 nM vWF; settings: tags: Calbiochem 681300; label: 5'-32P
Method: as §1

[3] = molecular target: T1, von Willebrand factor full length; test: filter; 17% bound at 100 nM vWF; settings: tags: Calbiochem 681300; label: 5'-32P
Method: as §1

[4] = molecular target: T1, von Willebrand factor full length; test: filter; 56% bound at 100 nM vWF; settings: tags: Calbiochem 681300; label: 5'-32P
Method: as §1

[5] = molecular target: T1, von Willebrand factor full length; test: filter; 47% bound at 100 nM; settings: tags: Calbiochem 681300
Method: as §1

[6] = molecular target: T1, von Willebrand factor full length; test: filter; 42% bound at 100 nM; settings: tags: Calbiochem 681300
Method: as §1

[7] = molecular target: T1, von Willebrand factor full length; test: filter; 51% bound at 100 nM; settings: tags: Calbiochem 681300
Method: as §1

[8] = molecular target: T1, von Willebrand factor full length; test: filter; only 2% bound at 100 nM vWF; settings: tags: Calbiochem 681300; label: 5'-32P
Method: as §1

[9] = molecular target: T1, von Willebrand factor full length; test: filter; 43% bound at 100 nM vWF; settings: tags: Calbiochem 681300; label: 5'-32P
Method: as §1

[10] = molecular target: T1, von Willebrand factor full length; test: filter; 16% bound at 100 nM vWF; settings: tags: Calbiochem 681300; label: 5'-32P
Method: as §1

[11] = molecular target: T1, von Willebrand factor full length; test: filter; 33% bound at 100 nM; settings: tags: Calbiochem 681300
Method: as §1

[12] = molecular target: T1, von Willebrand factor full length; test: filter; 39% bound at 100 nM vWF; settings: tags: Calbiochem 681300; label: 5'-32P
Method: as §1

[13] = molecular target: T1, von Willebrand factor full length; test: filter; 44% bound at 100 nM; settings: tags: Calbiochem 681300
Method: as §1

[14] = molecular target: T1, von Willebrand factor full length; test: filter; 55% bound at 100 nM; settings: tags: Calbiochem 681300
Method: as §1

[15] = molecular target: T1, von Willebrand factor full length; test: filter; 23% bound at 100 nM vWF; settings: tags: Calbiochem 681300; label: 5'-32P
Method: as §1

[16] = molecular target: T1, von Willebrand factor full length; test: filter; 18% bound at 100 nM vWF; settings: tags: Calbiochem 681300; label: 5'-32P
Method: as §1

[17] = molecular target: T1, von Willebrand factor full length; test: filter; 32% bound at 100 nM; settings: tags: Calbiochem 681300
Method: as §1

[18] = molecular target: T1, von Willebrand factor full length; test: filter; 47% bound at 100 nM vWF; settings: tags: Calbiochem 681300; label: 5'-32P
Method: as §1

[19] = molecular target: T1, von Willebrand factor full length; test: filter; 9% bound at 100 nM vWF; settings: tags: Calbiochem 681300; label: 5'-32P
Method: as §1

[20] = molecular target: T1, von Willebrand factor full length; test: filter; 51% bound at 100 nM vWF; settings: tags: Calbiochem 681300; label: 5'-32P
Method: as §1

[21] = molecular target: T1, von Willebrand factor full length; test: filter; 26.5% bound at 100 nM vWF; settings: tags: Calbiochem 681300; label: 5'-32P
Method: as §1

[22] = molecular target: T1, von Willebrand factor full length; test: filter; 38.2% bound at 100 nM vWF; settings: tags: Calbiochem 681300; label: 5'-32P
Method: as §1

[23] = molecular target: T1, von Willebrand factor full length; test: filter; 29.0% bound at 100 nM vWF; settings: tags: Calbiochem 681300; label: 5'-32P
Method: as §1

[24] = molecular target: T1, von Willebrand factor full length; test: filter; 38.5% bound at 100 nM vWF; settings: tags: Calbiochem 681300; label: 5'-32P
Method: as §1

[25] = molecular target: T1, von Willebrand factor full length; test: flow; range 1.3-370 nM; settings: tags: Calbiochem 681300
Method: Aptamer potency to block human vWF binding to lyophilized platelets was assessed by flow cytometric analysis. Titrations of aptamers (0 nM, 0.1 nM to 1000 nM) were pre-incubated briefly with 5 nM of full length human vWF in FACS buffer (PBS plus 0.5% bovine serum albumin) at room temperature in a volume of 50 uL. Another 50 uL containing 5 uL of lyophilized platelets plus 1 uL of 0.1 U/uL of botrocetin in FACS buffer was added to aptamer/vWF. This reaction was allowed to proceed for 15 minutes at 37 degrees C. after which 200 uL of FACS buffer was added. […] The pellets were resuspended in 100 uL of FACS buffer containing a 1:100 dilution of anti-vWF antibody and were incubated at room temperature for 30 minutes. […] The pellets were resuspended in a 1:100 solution of anti-IgG2a-FITC antibody and were incubated in the dark for 30 minutes at room temperature. The entire 100 uL was diluted into 200 uL of FACS buffer and analyzed immediately by flow cytometric analysis in the FACSCAN. […] Mean fluorescent intensity (“MFI”) readings were quantified for each sample analyzed by flow cytometry. […] IC₅₀ values were determined by fitting the percent inhibition of vWF binding to platelets as a function of aptamer concentration to the equation: % inhibition=% inhibitionₘₐₓ/(1+IC₅₀/aptamer conc.)

[26] = molecular target: T1, von Willebrand factor full length; test: filter; 22.6% bound at 100 nM vWF; settings: tags: Calbiochem 681300; label: 5'-32P
Method: as §1

[27] = molecular target: T1, von Willebrand factor full length; test: filter; 19.2% bound at 100 nM vWF; settings: tags: Calbiochem 681300; label: 5'-32P
Method: as §1

## GGCGUGCAGUGCCUUCGGCCGTGCGGTGCCUCCGUCACGCC (mixed, 2'-OMe/deoxy composite as printed in Table 22, 3'-idT) [ARC1342]
[1]
  Kd: 15.6 nM

B1: ARC1345 (mixed)
mixed: GGCGUGCAGUGCCUUCGGCCGTGCGGTGCCUCCGUCACGCC
modifications: 2'-OMe/deoxy composite with PS 5' of the deoxy residues as printed in Table 22, 3'-idT
[2]
  Kd: 12.1 nM

## GGCGUGCAGUGCCUUCGGCCGTGCGGTGCCUCCGUCACGCC (mixed, 2'-OMe/deoxy composite with multiple PS as printed in Table 22, 3'-idT) [ARC1344]
[3]
  Kd: 4.8 nM

## GGCGTGCAGTGCCTTCGGCCGTGCGGTGCCTCCGTCACGCC (ssDNA, 2'-OMe G9, 3'-idT) [ARC1202]
[4]
  Kd: 0.4 nM

## GGCGTGCAGTGCCTTCGGCCGTGCGGTGCCTCCGTCACGCC (ssDNA, 2'-OMe at 18; 3'-idT) [ARC1211]
[5]
  Kd: 2 nM

## GGCGTGCAGTGCCTTCGGCCGTGCGGTGCCTCCGTCACGCC (ssDNA, 2'-OMe at 41; 3'-idT) [ARC1234]
[6]
  Kd: 2 nM

## GGCGTGCAGTGCCTTCGGCCGTGCGGTGCCTCCGTCACGCC (ssDNA, 2'-OMe at 39; 3'-idT) [ARC1232]
[7]
  Kd: 1 nM

## GGCGTGCAGTGCCTTCGGCCGTGCGGTGCCTCCGTCACGCC (ssDNA, 2'-OMe G25, 3'-idT) [ARC1218]
[8]
  Kd: 32 nM

## GGCGTGCAGTGCCTTCGGCCGTGCGGTGCCUCCGUCACGCC (mixed, 2'-OMe at 23, 28, 29, 31, 34-36, 3'-idT) [ARC1340]
[9]
  Kd: 7.4 nM

## GGCGTGCAGTGCCTTCGGCCGTGCGGTGCCTCCGTCACGCC (ssDNA, 2'-OMe C32, 3'-idT) [ARC1225]
[10]
  Kd: 11 nM

## GGCGTGCAGTGCCTTCGGCCGTGCGGTGCCTCCGTCACGCC (ssDNA, 2'-OMe at 26; 3'-idT) [ARC1219]
[11]
  Kd: 3 nM

## GGCGTGCAGUGCCTTCGGCCGTGCGGTGCCTCCGUCACGCC (mixed, 2'-OMe at 9, 10, 21, 23, 34-36, 3'-idT) [ARC1339]
[12]
  Kd: 2.4 nM

## GGCGTGCAGTGCCTTCGGCCGTGCGGTGCCTCCGTCACGCC (ssDNA, 2'-OMe at 16; 3'-idT) [ARC1209]
[13]
  Kd: 2 nM

## GGCGTGCAGTGCCTTCGGCCGTGCGGTGCCTCCGTCACGCC (ssDNA, 2'-OMe at 2; 3'-idT) [ARC1195]
[14]
  Kd: 1 nM

## GGCGTGCAGTGCCTTCGGCCGTGCGGTGCCTCCGTCACGCC (mixed, 2'-OMe G1 G2 G4 G6 A37 G39, 3'-idT) [ARC1235]
[15]
  Kd: 13 nM

## GGCGTGCAGTGCCTTCGGCCGTGCGGTGCCTCCGTCACGCC (ssDNA, 2'-OMe C24, 3'-idT) [ARC1217]
[16]
  Kd: 14 nM

## GGCGUGCAGTGCCTTCGGCCGTGCGGTGCCTCCGTCACGCC (ssDNA, 2'-OMe at 3,5,36,38,40,41; 3'-idT) [ARC1236]
[17]
  Kd: 3 nM

## GGCGTGCAGTGCCTTCGGCCGTGCGGTGCCUCCGTCACGCC (ssDNA, 2'-OMe U31, 3'-idT) [ARC1224]
[18]
  Kd: 0.5 nM

## GGCGUGCAGTGCCTTCGGCCGTGCGGTGCCTCCGTCACGCC (mixed, 2'-OMe at 1-6 and 36-41, 3'-idT) [ARC1237]
[19]
  Kd: 41 nM

## GCGUGCAGUGCCUUCGGCCGTGCGGTGCCUCCGUCACGC (mixed, 2'-OMe/deoxy composite, 3'-idT) [ARC1346]
[20]
  Kd: 11 nM

## GCGUGCAGUGCCUUCGGCCGTGCGGTGCCUCCGUCACGC (mixed, 2'-OMe/deoxy composite, single PS between mG20 and dT21, 3'-idT) [ARC1524]
[21]
  Kd: 5.7 nM

## GCGUGCAGUGCCUUCGGCCGTGCGGTGCCUCCGUCACGC (mixed, 2'-OMe/deoxy composite, single PS between mG20 and dT21, 3'-idT) [ARC1368]
[22]
  Kd: 1.8 nM

## GCGUGCAGUGCCUUUGGCCGTGCGGTGCCUCCGUCACGC (mixed, 2'-OMe/deoxy composite, single PS, 3'-idT) [ARC1526]
[23]
  Kd: 47 nM

## GCGUGCAGUGCCUUCGGCCGTGCGGTGCCUCCGUCACGC (mixed, 2'-OMe/deoxy composite, 3'-idT) [ARC1361]
[24]
  Kd: 7.9 nM

## GGAGCCACACGACATTGGCGCGAGAGCGCATGGCTCC (mixed, ribo purines, deoxy pyrimidines) [rRdY minimer SEQ 201]
[25]
  IC50: 150 nM

## CGUGCAGUGCCUUCGGCCGTGCGGTGCCUCCGUCACG (mixed, 2'-OMe/deoxy composite, single PS, 3'-idT) [ARC1529]
[26]
  Kd: 12.3 nM

## CGUGCAGUGCCUUUGGCCGTGCGGTGCCUCCGUCACG (mixed, 2'-OMe/deoxy composite, single PS, 3'-idT) [ARC1530]
[27]
  Kd: 15 nM
